The results in this text go back to the supplement of paper PMC10126150.

This series relates to ATP. As to the kind of experiment: switch fluorescence ratio, 500 uM ATP over buffer (Cy3 cluster intensity, sum of 5 cycles each) (fold (ratio)); higher = stronger signal-on switching upon ATP binding; sequences stand for … in TCGTCGGCAGCGTCAGATGTGTATAAGAGACAGTTTTTTTTTTTTTTTTTTTTTTTTT…TC. The conditions noted are these: aptamer strand: ATP DNA aptamer (quencher-CACCTGGGGGAGTATTGCGGAGGAAGG + anchor), 100 nM annealed; ATP concentration: 500 uM. Put shortly:
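Clusters with intensities outside 100-1000 RFU were excluded. The remaining Cy3-labelled switching-strand clusters on a modified Illumina MiSeq flow-cell had been annealed to 100 nM quencher-labelled ATP aptamer and imaged in selection buffer, then after 15 min with 500 uM ATP at 22 °C, for five cycles separated by NaOH stripping and re-annealing. The fluorescence ratio, averaged per switch-domain sequence, is each cluster's summed target-cycle Cy3 intensity over its summed buffer-cycle Cy3 intensity.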

± gives the standard deviation of the averaged measurements.
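Note: ATP exposure 15 min at 22 °C before imaging.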

For TCTAAAATG, the switch fluorescence ratio stood at 0.972 ± 0.029.

For the sequence CTTGGGCCAC, the switch fluorescence ratio stood at 1 ± 0.032.

For the sequence GGGGTGCCTG, the switch fluorescence ratio stood at 0.999 ± 0.039.

For AGGTAGATAA, the switch fluorescence ratio is 0.99834 ± 0.00052.

With TTTGTGGGAG, the switch fluorescence ratio was 0.998 ± 0.02.

For TTTCGGAGGA, the switch fluorescence ratio was 0.991 ± 0.018.

Regarding GGGGTCAGAT, the switch fluorescence ratio amounted to 0.986 ± 0.051.

For the sequence TGGAATTGGA, the switch fluorescence ratio came out at 1.03 ± 0.093.

As to ACAGAAGGGG, the switch fluorescence ratio came out at 1.02 ± 0.012.

As to TCTGGGGAGT, the switch fluorescence ratio amounted to 1.01 ± 0.043.

For the sequence ACGGGAAAGT, the switch fluorescence ratio is 1.06 ± 0.089.

With ATAGGAAGGG, the switch fluorescence ratio was 0.996 ± 0.019.

As to AGGGGAGGAA, the switch fluorescence ratio is 0.994 ± 0.013.

Regarding TTAGTGATGT, the switch fluorescence ratio came out at 1.03 ± 0.0097.

In the case of TGGTTGCTAA, the switch fluorescence ratio is 1.01 ± 0.02.

Take GGGATTTTAA: the switch fluorescence ratio amounted to 0.9753 ± 0.0091.

As for GGGTGGGGGA, the switch fluorescence ratio came to 1.03 ± 0.028.

In the case of TAATGGGGAT, the switch fluorescence ratio came out at 0.989 ± 0.022.

With TTGAGCTAGT, the switch fluorescence ratio amounted to 1 ± 0.032.

On to AGATCTAAGG, for which the switch fluorescence ratio is 1 ± 0.019.

For the sequence TGAATTTGTA, the switch fluorescence ratio was 0.993 ± 0.03.

Regarding AGTCGGGCGG, the switch fluorescence ratio was 1 ± 0.026.

GACCGGCATG: the switch fluorescence ratio was found to be 1.01 ± 0.024.

Regarding TTAATAAGGT, the switch fluorescence ratio was 1.01 ± 0.035.

As for GTTTGATAAA, the switch fluorescence ratio amounted to 0.981 ± 0.034.

Take GGTTTTCCTG: the switch fluorescence ratio was 0.975 ± 0.014.

GAGGGTGGGA: the switch fluorescence ratio was found to be 0.983 ± 0.031.

On to CATATAGAGG, for which the switch fluorescence ratio was 1.01 ± 0.054.

As to TGTTGCCCCT, the switch fluorescence ratio was found to be 1.02 ± 0.051.

Turning to AGGGGCCGGG, the switch fluorescence ratio turned out to be 1.05 ± 0.12.

With ACAGGCTGAG, the switch fluorescence ratio is 0.9973 ± 0.0097.

Take CAATGAGCTT: the switch fluorescence ratio amounted to 0.9907 ± 0.0087.

Consider TATGTGAACA, for which the switch fluorescence ratio turned out to be 0.991 ± 0.025.

On to TCTAACAGCC, for which the switch fluorescence ratio came out at 1.06 ± 0.028.

For TGGCCGGGGG, the switch fluorescence ratio was determined as 1 ± 0.02.

As to TTGGGATTTA, the switch fluorescence ratio came out at 0.95 ± 0.015.

For CGGCACCCGT, the switch fluorescence ratio was determined as 0.9653 ± 0.0078.

In the case of AAGCCTTTAG, the switch fluorescence ratio is 0.974 ± 0.047.

With TTCAACTGGG, the switch fluorescence ratio is 1.104 ± 0.0025.

Consider CGCGGGACTT, for which the switch fluorescence ratio worked out at 2.01 ± 1.4.

Take CGATTGGTGT: the switch fluorescence ratio is 1.02 ± 0.021.

In the case of AAGCCGATTC, the switch fluorescence ratio came out at 1.03 ± 0.0068.

In the case of AAGGGGCATG, the switch fluorescence ratio amounted to 1.001 ± 0.0025.

Take TCTAGGGGGT: the switch fluorescence ratio was found to be 0.9766 ± 0.0071.

For TTTATGGGCA, the switch fluorescence ratio was 1.04 ± 0.05.

Turning to CGCTATGATG, the switch fluorescence ratio stood at 0.984 ± 0.028.

Consider GCATGGCCTA, for which the switch fluorescence ratio was determined as 0.997 ± 0.021.

On to CACCGGAGGG, for which the switch fluorescence ratio was determined as 1.25 ± 0.4.

GAAGGAAAGT: the switch fluorescence ratio turned out to be 0.9689 ± 0.0057.

For GACATGTTTT, the switch fluorescence ratio came out at 1.039 ± 0.0097.

On to GGGGCATTGG, for which the switch fluorescence ratio worked out at 0.99 ± 0.011.

As for CCATTTTTGG, the switch fluorescence ratio turned out to be 0.992 ± 0.011.

On to GCGCAACTGG, for which the switch fluorescence ratio turned out to be 1.352 ± 0.0074.

In the case of TAAATACGGT, the switch fluorescence ratio came to 1.03 ± 0.062.

Turning to GGTGTTACTG, the switch fluorescence ratio came out at 1.03 ± 0.048.

CAAGACACGT: the switch fluorescence ratio is 0.977 ± 0.032.

As for TTTGGTAGAG, the switch fluorescence ratio stood at 0.98 ± 0.018.

As for CGTGTCCAGG, the switch fluorescence ratio was determined as 1.3 ± 0.024.

As to CGGGGTAGGG, the switch fluorescence ratio worked out at 0.983 ± 0.016.

As for CGTGTGCATG, the switch fluorescence ratio is 1.06 ± 0.13.

Turning to TTTGTCGTTT, the switch fluorescence ratio came out at 1.03 ± 0.055.

Consider TGGGTAATGT, for which the switch fluorescence ratio was determined as 1.01 ± 0.023.

With CATGCACACT, the switch fluorescence ratio is 1.11 ± 0.053.

GGGGCTATGG: the switch fluorescence ratio was 1.02 ± 0.045.

For the sequence TGAAGAAAGT, the switch fluorescence ratio turned out to be 0.998 ± 0.032.

On to CAAAAACGTT, for which the switch fluorescence ratio was 1.02 ± 0.024.

Turning to GCTACGCAGC, the switch fluorescence ratio turned out to be 3.05 ± 1.8.

Turning to GTAAGAGCGT, the switch fluorescence ratio was found to be 0.996 ± 0.041.

For GGGGTGTCTG, the switch fluorescence ratio is 0.9792 ± 0.0074.

As for TCACGGGGCT, the switch fluorescence ratio stood at 1.01 ± 0.068.

Consider TTTTTGTGCA, for which the switch fluorescence ratio is 1.01 ± 0.011.

Take GTGGAAAAAA: the switch fluorescence ratio was determined as 1 ± 0.02.

As for ACTTTGGGGA, the switch fluorescence ratio is 1.033 ± 0.0065.

In the case of AGGTAATCAT, the switch fluorescence ratio stood at 1.01 ± 0.05.

As for GGGTCGGCAC, the switch fluorescence ratio was determined as 0.968 ± 0.035.

Turning to ATTTATGGGT, the switch fluorescence ratio stood at 0.987 ± 0.029.

For the sequence GAGTAATGGT, the switch fluorescence ratio came to 1.04 ± 0.02.

Consider CCGTTGGGCT, for which the switch fluorescence ratio is 1.01 ± 0.025.

As to AGTTTTAAGG, the switch fluorescence ratio was found to be 1 ± 0.025.
